# Assay results from article PMC10192418 (2023).
# Ends that are not written are not given here. FAM = 5(6)-carboxyfluorescein (N-terminal)
# B1: B-RCAL (BÜHLMANN recombinant calprotectin; His6-linker-S100A9-linker-S100A8) (complex)
# chain: MTCKMSQLERNIETIINTFHQYSVKLGHPDTLNQGEFKELVRKDLQNFLKKENKNEKVIEHIMEDLDTNADKQLSFEEFIMLMARLTWASHEKMHEGDEGPGHHHKPGLGEGTPLEVLFQGPMLTELEKALNSIIDVYHKYSLIKGNFHAVYRDDLKKLLETECPQYIRKKGADVWFKELDINTDGAVNFQEFLILVIKMGVAAHKKSHEESHKE
# Legend:
# Peptide 8 = experiment: FP; calcium (tetramer)
# Peptide 9 = experiment: FP; calcium (tetramer)
# Peptide 11 = experiment: FP; calcium (tetramer)
# Peptide 10 = experiment: FP; calcium (tetramer)
# Peptide 12 = experiment: FP; calcium (tetramer)
# Peptide 13 = experiment: FP; calcium (tetramer)
# Peptide 6 [1] = experiment: SPR
# Peptide 4 [2] = experiment: SPR
# Peptide 1 [3] = experiment: SPR
# Peptide 3 = experiment: SPR
# Peptide 7 [4] = experiment: SPR
# Peptide 2 [5] = experiment: SPR
# Peptide 6 [6] = experiment: FP; Ca2+
# Peptide 4 [7] = experiment: FP; Ca2+
# Peptide 1 [8] = experiment: FP; Ca2+
# Peptide 5 = experiment: FP; Ca2+
# Peptide 7 [9] = experiment: FP; Ca2+
# Peptide 2 [10] = experiment: FP; Ca2+
# [11] = biological target: B1; experiment: SPR
binder,measurement,setting,value
B1,Kd,Peptide 8,89 nM
same,Kd,Peptide 9,29000 nM
same,Kd,Peptide 11,42000 nM
same,Kd,Peptide 10,190000 nM
same,Kd,Peptide 12,37000 nM
same,Kd,Peptide 13,154000 nM
same,Kd,Peptide 6 [1],310 nM
same,Kd,Peptide 4 [2],1100 nM
same,Kd,Peptide 1 [3],1220 nM
same,Kd,Peptide 3,340 nM
same,Kd,Peptide 7 [4],840 nM
same,Kd,Peptide 2 [5],400 nM
same,Kd,Peptide 6 [6],10 nM
same,Kd,Peptide 4 [7],34 nM
same,Kd,Peptide 1 [8],38 nM
same,Kd,Peptide 5,55 nM
same,Kd,Peptide 7 [9],25 nM
same,Kd,Peptide 2 [10],22 nM
Fluorescein-RCPECVAFPMFQCHWYCG (not fully specified (bridges); also: disulfide pairing not given here) [peptide 3 isomer 3],Kd,[11],270 nM
{FAM}-RSPESVAFPMFQSHWYSG [linear peptide 3],Kd,[11],46 nM
Fluorescein-RCPECVAFPMFQCHWYCG (not fully specified (bridges); also: disulfide pairing not given here) [peptide 3 isomer 2],Kd,[11],500 nM
